Assay results: patent US20250171542A1

Target: Trop2 on MDA-MB-231 cell surface (UniProt P09758)
Assay: cell-based or functional assay

Trop2 on MDA-MB-231 cell surface, sequence (P09758 27-323 limits assumed): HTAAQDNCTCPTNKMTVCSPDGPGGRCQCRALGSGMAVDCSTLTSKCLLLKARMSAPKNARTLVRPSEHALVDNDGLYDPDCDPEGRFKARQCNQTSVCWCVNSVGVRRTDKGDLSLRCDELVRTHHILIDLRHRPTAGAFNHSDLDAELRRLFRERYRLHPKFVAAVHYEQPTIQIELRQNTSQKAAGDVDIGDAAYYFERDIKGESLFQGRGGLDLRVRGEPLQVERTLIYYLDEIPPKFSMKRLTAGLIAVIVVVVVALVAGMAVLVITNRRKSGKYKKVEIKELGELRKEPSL

Internalization (%), FACS, 0.25 µg/ml, 2 h: 35.7%
Internalization (%), FACS, 0.25 µg/ml, 4 h: 45.1%
Internalization (%), FACS, 0.5 µg/ml, 2 h: 38%
Internalization (%), FACS, 0.5 µg/ml, 4 h: 45.6%
Internalization (%), FACS, 1 µg/ml, 2 h: 36.5%
Internalization (%), FACS, 1 µg/ml, 4 h: 44.5%
Internalization (%), FACS, 2 µg/ml, 2 h: 36.2%
Internalization (%), FACS, 2 µg/ml, 4 h: 46.1%
B1: Trodelvy (Sacituzumab govitecan-hziy, Immunomedics) (antibody, INN chains, looked up, V domains shown)
VH: QVQLQQSGSELKKPGASVKVSCKASGYTFTNYGMNWVKQAPGQGLKWMGWINTYTGEPTYTDDFKGRFAFSLDTSVSTAYLQISSLKADDTAVYFCARGGFGSSYWYFDVWGQGSLVTVSS
VL: DIQLTQSPSSLSASVGDRVSITCKASQDVSIAVAWYQQKPGKAPKLLIYSASYRYTGVPDRFSGSGSGTDFTLTISSLQPEDFAVYYCQQHYITPLTFGAGTKVEIKR
modifications: govitecan (SN-38) payload
